According to patent publication US20150037340A1 (PEIRRE FABRE MEDICAMENT, published 2015):

Assays:
[1] = molecular target: monkey Axl receptor expressed on the surface of COS7 cells (African green monkey); test: flow cytometry on COS7 cells, goat anti-mouse Alexa 488
[2] = molecular target: T1, human protein Axl (cellular form on the cell surface) (human, UniProt P30530 26-894); test: flow cytometry on SN12C cells, goat anti-mouse Alexa 488
T1 construct: also called Axl receptor; membrane Axl receptor
T1 sequence: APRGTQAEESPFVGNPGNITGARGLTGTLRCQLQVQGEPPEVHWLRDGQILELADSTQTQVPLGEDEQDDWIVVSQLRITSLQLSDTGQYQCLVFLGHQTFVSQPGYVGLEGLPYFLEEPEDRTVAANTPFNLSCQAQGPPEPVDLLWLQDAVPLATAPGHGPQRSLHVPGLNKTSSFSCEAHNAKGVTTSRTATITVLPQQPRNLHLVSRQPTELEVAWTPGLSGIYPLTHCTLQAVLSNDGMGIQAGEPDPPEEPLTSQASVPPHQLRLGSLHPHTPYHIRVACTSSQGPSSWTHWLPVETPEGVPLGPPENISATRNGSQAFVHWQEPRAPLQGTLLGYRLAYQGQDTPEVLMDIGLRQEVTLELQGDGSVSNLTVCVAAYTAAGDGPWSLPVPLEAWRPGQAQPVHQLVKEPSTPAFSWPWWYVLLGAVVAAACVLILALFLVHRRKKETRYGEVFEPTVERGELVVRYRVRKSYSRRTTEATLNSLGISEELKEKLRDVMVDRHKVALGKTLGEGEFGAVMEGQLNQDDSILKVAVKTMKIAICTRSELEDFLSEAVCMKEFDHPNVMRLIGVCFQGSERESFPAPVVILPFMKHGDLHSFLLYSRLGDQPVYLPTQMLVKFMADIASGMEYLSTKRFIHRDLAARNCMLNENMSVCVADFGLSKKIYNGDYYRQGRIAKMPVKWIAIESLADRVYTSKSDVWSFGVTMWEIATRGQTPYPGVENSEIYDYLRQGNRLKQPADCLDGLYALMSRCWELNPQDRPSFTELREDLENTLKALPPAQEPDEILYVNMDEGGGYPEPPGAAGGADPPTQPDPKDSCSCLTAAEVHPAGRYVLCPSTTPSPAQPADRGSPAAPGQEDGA
Experimental: (§1) For cell surface binding studies, two fold serial dilutions of a 10 μg/m (6.66 10⁻⁸ M) primary antibody solution (1613F12, MAB154 antibody or mIgG1 isotype control 9G4 Mab) are prepared and are applied on 2.10⁵ cells for 20 min at 4° C. After 3 washes in phosphate-buffered saline (PBS) supplemented with 1% BSA and 0.01% NaN₃, cells were incubated with secondary antibody Goat anti-mouse Alexa 488 (1/500° dilution) for 20 minutes at 4° C. After 3 additional washes in PBS supplemented with 1% BSA and 0.1% NaN₃, cells were analyzed by FACS (Facscalibur, Becton-Dickinson). At least 5000 cells were assessed to calculate the mean value of fluorescence intensity.

[3] = molecular target: T1, human protein Axl (cellular form on the …); test: flow cytometry on MDA-MB-231 cells, goat anti-mouse Alexa 488
Experimental: as §1

[4] = molecular target: T2, recombinant human Axl-Fc (R and D Systems, cat No 154-AL / 154AL/CF) (human, UniProt P30530 26-451); test: ELISA on coated rhAxl-Fc, detection with goat anti-mouse IgG-HRP
T2 construct: Bought protein; also called rhAxl-Fc; rh Axl-Fc protein; not shown: human IgG Fc portion (detected with anti-human IgG Fc)
T2 sequence: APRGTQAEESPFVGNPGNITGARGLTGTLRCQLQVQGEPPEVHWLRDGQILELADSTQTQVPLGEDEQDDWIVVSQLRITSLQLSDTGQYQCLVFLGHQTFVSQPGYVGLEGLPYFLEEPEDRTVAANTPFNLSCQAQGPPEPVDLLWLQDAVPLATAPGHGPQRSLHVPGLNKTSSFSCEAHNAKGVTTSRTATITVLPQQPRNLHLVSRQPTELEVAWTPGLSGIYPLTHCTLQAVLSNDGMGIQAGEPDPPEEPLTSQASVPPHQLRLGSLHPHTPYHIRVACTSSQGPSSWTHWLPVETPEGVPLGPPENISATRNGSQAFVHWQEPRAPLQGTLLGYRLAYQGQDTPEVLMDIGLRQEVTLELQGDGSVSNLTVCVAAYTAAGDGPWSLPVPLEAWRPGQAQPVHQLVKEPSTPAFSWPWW
Experimental: (§2) Then ½ serial dilutions were done over 12 columns. Plates were washed and a goat anti-mouse (Jackson) specific IgG-HRP was added for 1 h at 37° C. Reaction development was performed using the TMB substrate solution. […] Coating controls were performed in presence of a goat anti-human IgG Fc polyclonal serum labelled with HRP (Jackson, ref 109-035-098) and/or in presence of a HRP-coupled anti-Histidine antibody (R and D Systems, ref: MAB050H). Results are represented in FIGS. 2A, 2B and 2C, respectively.

[5] = molecular target: T3, recombinant human Dtk-Fc (R and D Systems, cat No 859-DK) (human, UniProt Q06418 41-428); test: ELISA on coated rhDtk-Fc, detection with goat anti-mouse IgG-HRP
T3 construct: Bought protein; also called rhDtk-Fc; rhDtk; not shown: Fc portion
T3 sequence (looked up): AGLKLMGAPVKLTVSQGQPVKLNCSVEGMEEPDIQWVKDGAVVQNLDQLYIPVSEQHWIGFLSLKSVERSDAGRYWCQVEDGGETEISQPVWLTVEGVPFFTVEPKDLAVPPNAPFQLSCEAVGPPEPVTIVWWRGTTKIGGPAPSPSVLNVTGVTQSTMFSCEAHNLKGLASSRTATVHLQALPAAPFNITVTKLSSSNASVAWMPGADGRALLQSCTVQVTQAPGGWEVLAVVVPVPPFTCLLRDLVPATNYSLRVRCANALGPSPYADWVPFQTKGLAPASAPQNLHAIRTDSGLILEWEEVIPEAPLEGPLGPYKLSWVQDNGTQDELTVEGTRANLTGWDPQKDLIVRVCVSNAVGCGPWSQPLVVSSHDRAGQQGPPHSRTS
Experimental: as §2

B1: 1613F12 antibody (murine form) (antibody, V domains shown)
VH: EVHLQQSGAELVKPGASVKLSCTASGFNIRDTYIHWVKQRPEQGLEWIGRLDPANGHTKYGPNFQGRATMTSDTSSNTAYLQLSSLTSEDTAVYYCARGAYYYGSSGLFYFDYWGQGTTLSVSS
VL: DVQITQSPSYLATSPGETITINCRASKSISKYLAWYQEKPGKTNKLLIYSGSTLQSGVPSRFSGSGSGTDFTLTISSLEPEDFAMYFCQQHHEYPLTFGAGTELELK
notes: Whole murine monoclonal antibody purified from a hybridoma; a murine IgG1 (9G4) serves as its isotype control; also called m1613F12; monoclonal antibody 1613F12 derived from the hybridoma I-4505
- EC50 (read off the curve) [1]: 1 nM
- EC50 (read off the curve) [2]: ~1 nM
- EC50 (read off the curve) [3]: ~1 nM
- EC50 (read off the curve) [4]: ~1 nM
- binding result [5]: no binding (tested: log -7.5 M)
